According to patent US20190241669A1 (published 2019):
Substitutions are numbered along the chain they refer to.

B1: COMBO_Rd4_0.6nM_C21 (antibody, V domains shown)
VH: EVQLLESGGGLVQPGGSLRLSCAASGFTFSSYPMSWVRQAPGKGLEWVSAIGGSGGSLPYADSVKGRFTISRDNSKNTLYLQMNSLRAEDTAVYYCARYWPMDSWGQGTLVTVSS
VL: EIVLTQSPGTLSLSPGERATLSCRASQSVSSSYLAWYQQKPGQAPRLLMYDASIRATGIPDRFSGSGSGTDFTLTISRLEPEDFAVYYCQQYQSWPLTFGQGTKVEIK
notes: IgG
B2: A02_Rd4_0.6nM_C01 (antibody, V domains shown)
VH: B1 VH with P33A, S35N, G52L, G53S, L58T, P59Y, S104I
VL: B1 VL with A25G, S26G
notes: IgG; also called P5AC1
B3: A02_Rd4_0.6nM_C03 (antibody, V domains shown)
VH: B1 VH with P33A, S35N, G52S, G53D, L58K, P59W, D103S, S104L
VL: B1 VL with Q93F, S94T
notes: IgG
B4: A02_Rd4_0.6nM_C06 (antibody, V domains shown)
VH: B1 VH with P33A, S35N, G52S, G53D, L58A, P59W, D103S, S104L
VL: B1 VL with S31V, S32L, S94R
notes: IgG
B5: A02_Rd4_0.6nM_C09 (antibody, V domains shown)
VH: B1 VH with P33A, S35N, G52S, G53D, L58M, P59W, D103S, S104L
VL: B1 VL
notes: IgG
B6: A02_Rd4_0.6nM_C10 (antibody, V domains shown)
VH: B1 VH with P33A, S35N, G52S, S54W
VL: B1 VL with S31A, S32Q, S94R
notes: IgG
B7: A02_Rd4_0.6nM_C13 (antibody, V domains shown)
VH: B1 VH with P33A, S35N, G52S, G53D, S57Y, L58R, P59Y, D103S, S104L
VL: B1 VL with L34W, Q93E
notes: IgG
B8: A02_Rd4_0.6nM_C26 (antibody, V domains shown)
VH: B1 VH with P33A, S35N, G52L, G53M, L58T, P59Y, D103S, S104L
VL: B1 VL with R24G, A25P
notes: IgG
B9: A02_Rd4_6nM_C03 (antibody, V domains shown)
VH: B1 VH with P33A, S35N, G52S, G53D, L58T, P59Y, S104I
VL: B1 VL with S31N, S32L, S94G
notes: IgG
B10: A02_Rd4_6nM_C04 (antibody, V domains shown)
VH: B1 VH with P33A, S35N, G52M, G53S, S57P, P59Y, D103A, S104L
VL: B1 VL with S31A, S32L, S94V
notes: IgG
B11: A02_Rd4_6nM_C05 (antibody, V domains shown)
VH: B1 VH with P33A, S35N, G52F, G53A, L58T, P59Y, D103T, S104P
VL: B1 VL with S94R
notes: IgG

Experiments:
[1] = biological target: Human BCMA (human) (UniProt Q02223); test: SPR, IgG on chip, huBCMA analyte
[2] = biological target: T1, cynomolgus monkey BCMA (cynomolgus monkey, UniProt A0A2K5UD97 1-53); test: SPR, IgG on chip, cyBCMA analyte
T1 construct: Soluble analyte in SPR; construct not described; also called cyBCMA; Cyno BCMA
T1 sequence (A0A2K5UD97 entry or part of it): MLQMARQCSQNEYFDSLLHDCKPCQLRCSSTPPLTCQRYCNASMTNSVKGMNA

Binder	Kd [1] [nM]	koff [1] [s⁻¹]	kon [1] [M⁻¹ s⁻¹]	Kd [2] [nM]	koff [2] [s⁻¹]	kon [2] [M⁻¹ s⁻¹]
B1	0.009	0.000115	1.34e+07	0.084	0.000304	3.63e+06
B2	0.193	0.000915	4.74e+06	0.655	0.00157	2.39e+06
B3	0.043	0.000182	4.27e+06	0.201	0.000426	2.12e+06
B4	0.021	7.37e-05	3.49e+06	0.058	0.000105	1.81e+06
B5	0.018	9.75e-05	5.5e+06	0.082	0.000174	2.13e+06
B6	0.129	0.000296	2.3e+06	1.84	0.00163	883000
B7	0.066	0.000566	8.53e+06	0.56	0.00128	2.29e+06
B8	0.061	0.000443	7.26e+06	0.941	0.00256	2.71e+06
B9	0.075	0.000126	1.69e+06	0.158	0.000185	1.17e+06
B10	0.135	0.000603	4.47e+06	0.381	0.000831	2.18e+06
B11	0.099	0.000308	3.1e+06	0.95	0.00129	1.36e+06
